From paper PMC8967061, “Mechanism of Borrelia immune evasion by FhbA-related proteins” (PLoS Pathogens, 2022)
Changes are numbered by the printed parent chain.

B1: Factor H binding protein A (FhbA) from Borrelia hermsii, wild type (domain or fragment)
chain: LKTLDNLLKTLDNNQKQALIYFKDKLQDKKYLNDLMEQQKSFLDNLQKKKEDPDLQDRLKKTLNSEYDESQFNKLLNELGNAKAKQFLQQLHIMLQSIKDGTLTSFSSSNFNDLQNLEQKKERALQYINGKLYVEYYFYINGISNADNFFETIMEYLKT
notes: FhbA of Borrelia hermsii strain YOR, without its leader peptide, residues 44-202; also called BhFhbA; Wild type BhFhbA; source: E. coli BL21 (DE), purified (Ni-NTA, size-exclusion chromatography)
B2: Factor H domains 19-20 (domain or fragment)
chain: DSTGKCGPPPPIDNGDITSFPLSVYAPASSVEYQCQNLYQLEGNKRITCRNGQWSEPPKCLHPCVISREIMENYNIALRWTAKQKLYSRTGESVEFVCKRGYRLSSRSHTLRTTCWDGKLEYPTCAKR
modifications: RED-tris-NTA dye label (in the MST assays only)
notes: human complement factor H, short consensus repeat domains 19-20, wild type; also called FH19-20; FH19-20 fragment

Columns and labels:
Details in all cases: both partners purified
Factor H, full length = target: T1, Factor H, full length (human, UniProt P08603 19-1231, RED-tris-NTA dye label (in the MST assays only)); assay: MST; full-length FH labelled with RED-tris-NTA dye, FhbA proteins titrated, PBS/0.025% Tween-20, 22 C
T1 construct: human complement factor H, 20 short consensus repeat domains; In the functional assays FH was that of whole blood or serum; also called FH; full-length FH; source: bought: Comptech (Complement Technologies), TX, USA

[1] = target: B1; assay: MST; FH19-20 labelled with RED-tris-NTA dye (300 nM stock, mixed 1:1 with ligand), FhbA proteins titrated, PBS/0.025% Tween-20, 22 C
BhFhbA Lys91Ala = target: T2, BhFhbA Lys91Ala (Borrelia hermsii YOR, UniProt W5SB08 44-202, Lys91Ala); assay: as above
T2 construct: FhbA of Borrelia hermsii strain YOR, residues 44-202 as the wild type construct, single alanine mutant; also called #3; source: E. coli BL21 (DE), purified (Ni-NTA, size-exclusion chromatography)
T2 sequence (looked up): B1 chain with K48A

BhFhbA Phe85Ala = target: T3, BhFhbA Phe85Ala (Borrelia hermsii YOR, UniProt W5SB08 44-202, Phe85Ala); assay: as above
T3 construct: FhbA of Borrelia hermsii strain YOR, residues 44-202 as the wild type construct, single alanine mutant; also called #1; source: E. coli BL21 (DE), purified (Ni-NTA, size-exclusion chromatography)
T3 sequence (looked up): B1 chain with F42A

BhFhbA Asn153Ala = target: T4, BhFhbA Asn153Ala (Borrelia hermsii YOR, UniProt W5SB08 44-202, Asn153Ala); assay: as above
T4 construct: FhbA of Borrelia hermsii strain YOR, residues 44-202 as the wild type construct, single alanine mutant; source: E. coli BL21 (DE), purified (Ni-NTA, size-exclusion chromatography)
T4 sequence (looked up): B1 chain with N110A

BhFhbA Met137Ala = target: T5, BhFhbA Met137Ala (Borrelia hermsii YOR, UniProt W5SB08 44-202, Met137Ala); assay: as above
T5 construct: FhbA of Borrelia hermsii strain YOR, residues 44-202 as the wild type construct, single alanine mutant; also called #4; source: E. coli BL21 (DE), purified (Ni-NTA, size-exclusion chromatography)
T5 sequence (looked up): B1 chain with M94A

BhFhbA Ile171Ala = target: T6, BhFhbA Ile171Ala (Borrelia hermsii YOR, UniProt W5SB08 44-202, Ile171Ala); assay: as above
T6 construct: FhbA of Borrelia hermsii strain YOR, residues 44-202 as the wild type construct, single alanine mutant; source: E. coli BL21 (DE), purified (Ni-NTA, size-exclusion chromatography)
T6 sequence (looked up): B1 chain with I128A

BhFhbA Glu178Ala = target: T7, BhFhbA Glu178Ala (Borrelia hermsii YOR, UniProt W5SB08 44-202, Glu178Ala); assay: as above
T7 construct: FhbA of Borrelia hermsii strain YOR, residues 44-202 as the wild type construct, single alanine mutant; source: E. coli BL21 (DE), purified (Ni-NTA, size-exclusion chromatography)
T7 sequence (looked up): B1 chain with E135A

BhFhbA Phe181Ala = target: T8, BhFhbA Phe181Ala (Borrelia hermsii YOR, UniProt W5SB08 44-202, Phe181Ala); assay: as above
T8 construct: FhbA of Borrelia hermsii strain YOR, residues 44-202 as the wild type construct, single alanine mutant; also called #9; source: E. coli BL21 (DE), purified (Ni-NTA, size-exclusion chromatography)
T8 sequence (looked up): B1 chain with F138A

BhFhbA Asn88Ala = target: T9, BhFhbA Asn88Ala (Borrelia hermsii YOR, UniProt W5SB08 44-202, Asn88Ala); assay: as above
T9 construct: FhbA of Borrelia hermsii strain YOR, residues 44-202 as the wild type construct, single alanine mutant; also called #2; source: E. coli BL21 (DE), purified (Ni-NTA, size-exclusion chromatography)
T9 sequence (looked up): B1 chain with N45A

BhFhbA Glu198Ala = target: T10, BhFhbA Glu198Ala (Borrelia hermsii YOR, UniProt W5SB08 44-202, Glu198Ala); assay: as above
T10 construct: FhbA of Borrelia hermsii strain YOR, residues 44-202 as the wild type construct, single alanine mutant; also called #10; source: E. coli BL21 (DE), purified (Ni-NTA, size-exclusion chromatography)
T10 sequence (looked up): B1 chain with E155A

Binder | Kd (Factor H, full length) [nM] | Kd [1] [nM] | Kd (BhFhbA Lys91Ala) [nM] | Kd (BhFhbA Phe85Ala) [nM] | Kd (BhFhbA Asn153Ala) [nM] | Kd (BhFhbA Met137Ala) [nM] | Kd (BhFhbA Ile171Ala) [nM] | Kd (BhFhbA Glu178Ala) [nM] | Kd (BhFhbA Phe181Ala) [nM] | Kd (BhFhbA Asn88Ala) [nM] | Kd (BhFhbA Glu198Ala) [nM]
B1 | 30 |  |  |  |  |  |  |  |  |  | 
B2 |  | 82 | 110 | 110 | 73 | 1000 | 380 | 100 | 33 | 110 | 130
